According to article PMC2396416:

Assays:
TFBb = target: T1, TFBb (Halobacterium sp. NRC-1, UniProt Q9HRE6 1-325); test: EMSA
T1 sequence: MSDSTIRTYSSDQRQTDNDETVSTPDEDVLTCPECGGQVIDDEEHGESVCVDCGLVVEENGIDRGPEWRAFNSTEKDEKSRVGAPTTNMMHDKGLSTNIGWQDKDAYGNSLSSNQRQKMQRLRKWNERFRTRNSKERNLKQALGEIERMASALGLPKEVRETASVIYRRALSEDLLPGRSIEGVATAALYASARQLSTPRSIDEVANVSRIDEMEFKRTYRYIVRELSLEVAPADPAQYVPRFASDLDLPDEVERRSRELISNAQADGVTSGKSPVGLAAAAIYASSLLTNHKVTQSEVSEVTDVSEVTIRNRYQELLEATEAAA

TFBg = target: T2, TFBg (Halobacterium sp. NRC-1, UniProt Q9HSF7 1-323); test: EMSA
T2 sequence: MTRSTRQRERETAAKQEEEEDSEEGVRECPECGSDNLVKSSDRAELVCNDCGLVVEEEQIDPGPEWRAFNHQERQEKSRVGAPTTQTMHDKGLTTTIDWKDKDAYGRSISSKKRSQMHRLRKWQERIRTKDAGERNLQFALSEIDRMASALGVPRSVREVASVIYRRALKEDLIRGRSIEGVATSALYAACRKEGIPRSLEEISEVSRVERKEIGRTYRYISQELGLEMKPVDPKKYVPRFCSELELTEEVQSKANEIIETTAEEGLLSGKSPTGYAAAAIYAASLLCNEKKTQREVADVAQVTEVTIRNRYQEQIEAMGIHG

B1: FM (BRE/TATA of Phsp5 replaced by Pbop) (dsDNA)
DNA 1: GCGGGATCCTCGTAGAGTTACACGAAATGCGGACATAGTTTTGGCTGGAGTCAAGGCATATGAGT
DNA 2: ACTCATATGCCTTGACTCCAGCCAAAACTATGTCCGCATTTCGTGTAACTCTACGAGGATCCCGC
binding result (TFBb): no binding
binding result (TFBg): no binding
